What was measured:
Fam19A1-M3 = test: ELISA on coated FAM19A1 protein (500 ng), one antibody amount, anti-hKappa-HRP (Example 4)
Fam19A1-M4 = test: as above
Fam19A1-M5 = test: as above
Fam19A1-M2 = test: as above
Fam19A1-M1 = test: as above
[1] = target: Wild-type FAM19A1 (Table 10) (Mus musculus (Mouse), UniProt Q7TPG8 20-133); test: as above
Fam19A1-M7 = test: as above
FAM19A1 mutant M6 = FAM19A1 mutant M6 (Mus musculus (Mouse), UniProt Q7TPG8 20-133); test: ELISA on plate-coated mutant, anti-hKappa-HRP detection
[2] = target: T1, FAM19A1 protein (ELISA of Example 3) (Homo sapiens (Human), UniProt Q7Z5A9 20-133); test: ELISA, IgG titrated from 0 to 100 nM on FAM19A1 protein (Example 3); Kd row of the table under the graph, R square 0.9527, the concentration axis reads Cons (nM); fitted curve levels off at A450 about 2.8, last point at 100 nM about 3.1
[3] = target: T1, FAM19A1 protein (ELISA of Example 3); test: ELISA, IgG titrated from 0 to 100 nM on FAM19A1 protein (Example 3); Kd row of the table under the graph, R square 0.9106, the concentration axis reads Cons (nM); fitted curve levels off low, at A450 about 0.75
[4] = target: T1, FAM19A1 protein (ELISA of Example 3); test: ELISA, IgG titrated from 0 to 100 nM on FAM19A1 protein (Example 3); Kd row of the table under the graph, R square 0.9168, the concentration axis reads Cons (nM); the curve is faint and not told apart from that of 1A11
hRAGE-Fc = target: T2, hRAGE-Fc (human (by the label hRAGE), UniProt Q15109 23-344, limits assumed); test: mono scFv-phage ELISA on coated antigen, single point (Example 2)
T2 construct: Control antigen
T2 sequence (Q15109 23-344 limits assumed): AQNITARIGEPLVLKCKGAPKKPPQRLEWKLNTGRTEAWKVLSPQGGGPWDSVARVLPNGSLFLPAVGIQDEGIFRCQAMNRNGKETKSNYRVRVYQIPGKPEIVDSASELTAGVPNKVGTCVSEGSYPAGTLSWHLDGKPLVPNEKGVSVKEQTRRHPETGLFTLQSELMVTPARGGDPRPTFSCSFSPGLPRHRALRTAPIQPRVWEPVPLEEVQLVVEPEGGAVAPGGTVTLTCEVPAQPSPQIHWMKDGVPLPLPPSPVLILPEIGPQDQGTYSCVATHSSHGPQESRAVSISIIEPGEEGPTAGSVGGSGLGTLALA

AITR-Fc = target: T3, AITR-Fc (UniProt Q9Y5U5 26-161, limits assumed); test: as above
T3 construct: also called AIRTR
T3 sequence (looked up): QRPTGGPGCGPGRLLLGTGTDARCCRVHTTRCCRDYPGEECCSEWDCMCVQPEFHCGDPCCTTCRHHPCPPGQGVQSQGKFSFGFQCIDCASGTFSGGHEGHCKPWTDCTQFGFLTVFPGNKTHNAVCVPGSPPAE

CD58-Fc = target: T4, CD58-Fc (UniProt P19256 29-215, limits assumed); test: as above
T4 construct: Control antigen
T4 sequence (looked up): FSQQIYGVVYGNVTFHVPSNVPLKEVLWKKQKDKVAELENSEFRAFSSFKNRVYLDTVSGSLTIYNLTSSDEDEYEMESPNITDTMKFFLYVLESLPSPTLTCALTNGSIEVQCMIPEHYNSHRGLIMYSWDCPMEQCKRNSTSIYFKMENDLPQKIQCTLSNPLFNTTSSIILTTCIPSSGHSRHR

B1: anti-FAM19A1 IgG1 antibody clone 1C1 (antibody, V domains shown)
VH: QVQLVESGGGVAQPGRSLRLSCAASGFAFSDYGIHWVRQAPGKGLEWVALISYDGSKRSYADSVKGRFAISRDNSKNTLYLQMNSLRAEDTAVYYCARPGDYALAFDLWGQGTMVTVSS
VL: QTVVTQEPSFSVSPGETVTLTCGLSSGSVSTSHFPSWYRQTPGQAPRPLIDSRNARSIGVPDRFSGSIVGTKATLTISGAQAEDECNYYCALYMGRGNWVFGGGTKLTVL
notes: also called A1-1C1; FAM19A1-1C1
- binding result (Fam19A1-M3): binds
- binding result (Fam19A1-M4): binds
- binding result (Fam19A1-M5): binds
- binding result (Fam19A1-M2): binds
- binding result (Fam19A1-M1): binds
- binding result [1]: binds
- binding result (Fam19A1-M7): binds
- binding result (FAM19A1 mutant M6): no binding
- Kd [2]: 1.13 nM

B2: anti-FAM19A1-2G7 (antibody, V domains shown)
VH: QVQLVESGGGLVKPGRSLSLSCTTSGFPFGDHAINWVRQAPGKGLEWVGFIRSNTYGGTTQYAASVEGRFTISRDDSKSIAYLQMNSLRAEDTAVYYCTKDITGGGFWSDYGDYFDAFDFWGQGTMVTVSS
VL: SYELTQPLSVSVSPGQTASISCSGDKLGYKYASWYQQKPGQSPVVVIYQDKKRPSGIPERFSGSNSGNTATLTISGTQPMDEADYYCQAWDSGTASHVFGTGTKVTVL
notes: also called anti-FAM19A1 IgG1 antibody clone 2G7
- Kd [3]: 1.89 nM

B3: anti-FAM19A1-3A8 (antibody, V domains shown)
VH: QVQLQQSGPGLVKPSETLSLICSVSGDAITSGSYYWGWIRQSPGRGLEWIGEISHSGSTDYNPSLKSRVTISVDKSRNQFSLRLNSVTAVDTAVYYCAGDTALVGAYSIWGQGTMVTVSS
VL: SYELTQAPSLSVSPGQTANIICSGDNLRTKYVSWYQQKPGQSPLLVIYQDTRRPSGIPARFSGSNSGNTATLTISGTQTRDESTYYCMTWDVDTTSMIFGGGTKLTVL
notes: also called anti-FAM19A1 IgG1 antibody clone 3A8
- Kd [4]: 56 nM

B4: anti-FAM19A1-1A11 (antibody, V domains shown)
VH: QVQLVESGAEVRKPGASVKVSCKASGYSFTGYDINWVRQAPGQGLEWMGWMNPSSGNTGYAQKFQGRVTMTRDSSISTAYMELSSLRSEDTAVYYCARALNSVYYYHALDVWGQGTTITVSS
VL: SYELTQPPSASVSPGQTASITCSGDRLHNKYTSWYQQKPGQSPLLVIYQDAKRPSGIPERFSGSSSRGTATLTISGTQATDEADYYCQTWDRSTGVFGTGTKVTVL
notes: also called anti-FAM19A1 IgG1 antibody clone 1A11; A1-1A11-Ybio
- binding result (Fam19A1-M2): binds
- binding result (Fam19A1-M1): binds

B5: Anti-FAM19A1 1A11 mono scFv-phage clone (scFv, V domains shown)
VH: QVQLVESGAEVRKPGASVKVSCKASGYSFTGYDINWVRQAPGQGLEWMGWMNPSSGNTGYAQKFQGRVTMTRDSSISTAYMELSSLRSEDTAVYYCARALNSVYYYHALDVWGQGTTITVSS
VL: SYELTQPPSASVSPGQTASITCSGDRLHNKYTSWYQQKPGQSPLLVIYQDAKRPSGIPERFSGSSSRGTATLTISGTQATDEADYYCQTWDRSTGVFGTGTKVTVL
- binding result (hRAGE-Fc): no binding
- binding result (AITR-Fc): no binding
- binding result (CD58-Fc): no binding

B6: Anti-FAM19A1 1C1 mono scFv-phage clone (scFv, V domains shown)
VH: QVQLVESGGGVAQPGRSLRLSCAASGFAFSDYGIHWVRQAPGKGLEWVALISYDGSKRSYADSVKGRFAISRDNSKNTLYLQMNSLRAEDTAVYYCARPGDYALAFDLWGQGTMVTVSS
VL: QTVVTQEPSFSVSPGETVTLTCGLSSGSVSTSHFPSWYRQTPGQAPRPLIDSRNARSIGVPDRFSGSIVGTKATLTISGAQAEDECNYYCALYMGRGNWVFGGGTKLTVL
- binding result (hRAGE-Fc): no binding
- binding result (AITR-Fc): no binding
- binding result (CD58-Fc): no binding

B7: Anti-FAM19A1 2G7 mono scFv-phage clone (scFv, V domains shown)
VH: QVQLVESGGGLVKPGRSLSLSCTTSGFPFGDHAINWVRQAPGKGLEWVGFIRSNTYGGTTQYAASVEGRFTISRDDSKSIAYLQMNSLRAEDTAVYYCTKDITGGGFWSDYGDYFDAFDFWGQGTMVTVSS
VL: SYELTQPLSVSVSPGQTASISCSGDKLGYKYASWYQQKPGQSPVVVIYQDKKRPSGIPERFSGSNSGNTATLTISGTQPMDEADYYCQAWDSGTASHVFGTGTKVTVL
- binding result (hRAGE-Fc): no binding
- binding result (AITR-Fc): no binding
- binding result (CD58-Fc): no binding

B8: Anti-FAM19A1 3A8 mono scFv-phage clone (scFv, V domains shown)
VH: QVQLQQSGPGLVKPSETLSLICSVSGDAITSGSYYWGWIRQSPGRGLEWIGEISHSGSTDYNPSLKSRVTISVDKSRNQFSLRLNSVTAVDTAVYYCAGDTALVGAYSIWGQGTMVTVSS
VL: SYELTQAPSLSVSPGQTANIICSGDNLRTKYVSWYQQKPGQSPLLVIYQDTRRPSGIPARFSGSNSGNTATLTISGTQTRDESTYYCMTWDVDTTSMIFGGGTKLTVL
- binding result (hRAGE-Fc): no binding
- binding result (AITR-Fc): no binding
- binding result (CD58-Fc): no binding

Reference: patent publication US20230104540A1 (NEURACLE SCIENCE, published 2023)
